Substrate: O=C(O)CCC(=O)C(=O)O
Assay: purified protein
Format: biochemical, Halorubrum sp. CSM-61
Conditions: α-KG varied 1-20 mM, amino donor (R)-methylbenzylamine co-varied at 5 equivalents, 0.5 mM PLP, phosphate pH 8.0, 1 M KCl, 30% DMF, 45 °C per general assay, the varied substrate is named only in Method

B1: BC61-TAm (Halorubrum sp. CSM-61) (protein)
chain: MGFDEMDVDTIWKNGEFLDWEDATTHVLTHALHYGSGVFEGVRCYDTEQGPAVFRWDEHLDRLFDSAKMYDLDIEHSREEITEATMELLRRQDLESCYIRPIAYYGYDSLGVSPKECPTDLVVAAWPWGAYLGEEALEDGVDVMVSSWRKHASSQVPTNVKTTGLYVNSMLAGEEARRNGYVEAIVLNKEGNVAEGPGENVFMVNDGEIYTTGPAQSILEGITRDTVIELAEERGYTVHDEAVVSRGQLYTADELFFTGSAAEVTPIRSVDDTEIGAGTRGPVTEELQSAFFDLVERRTDAHDDWFTYV
notes: full-length gene (930 bp), N-terminal 6xHis tag (pTA1228), expressed in Haloferax volcanii H1424, IMAC purified, 34-35 kDa
In the case of B1, the Km is reported as 3.37 mM and the kcat is reported as 0.042 s⁻¹.

— article PMC6597733, “Characterisation of a solvent-tolerant haloarchaeal (R)-selective transaminase isolated from a Triassic period salt mine” (Applied Microbiology and Biotechnology, 2019)
